T1: human beta klotho protein (soluble, used in Biacore) (human, UniProt Q86Z14 53-997, limits assumed)
T1 construct: also called HuKLB; huKLB
T1 sequence: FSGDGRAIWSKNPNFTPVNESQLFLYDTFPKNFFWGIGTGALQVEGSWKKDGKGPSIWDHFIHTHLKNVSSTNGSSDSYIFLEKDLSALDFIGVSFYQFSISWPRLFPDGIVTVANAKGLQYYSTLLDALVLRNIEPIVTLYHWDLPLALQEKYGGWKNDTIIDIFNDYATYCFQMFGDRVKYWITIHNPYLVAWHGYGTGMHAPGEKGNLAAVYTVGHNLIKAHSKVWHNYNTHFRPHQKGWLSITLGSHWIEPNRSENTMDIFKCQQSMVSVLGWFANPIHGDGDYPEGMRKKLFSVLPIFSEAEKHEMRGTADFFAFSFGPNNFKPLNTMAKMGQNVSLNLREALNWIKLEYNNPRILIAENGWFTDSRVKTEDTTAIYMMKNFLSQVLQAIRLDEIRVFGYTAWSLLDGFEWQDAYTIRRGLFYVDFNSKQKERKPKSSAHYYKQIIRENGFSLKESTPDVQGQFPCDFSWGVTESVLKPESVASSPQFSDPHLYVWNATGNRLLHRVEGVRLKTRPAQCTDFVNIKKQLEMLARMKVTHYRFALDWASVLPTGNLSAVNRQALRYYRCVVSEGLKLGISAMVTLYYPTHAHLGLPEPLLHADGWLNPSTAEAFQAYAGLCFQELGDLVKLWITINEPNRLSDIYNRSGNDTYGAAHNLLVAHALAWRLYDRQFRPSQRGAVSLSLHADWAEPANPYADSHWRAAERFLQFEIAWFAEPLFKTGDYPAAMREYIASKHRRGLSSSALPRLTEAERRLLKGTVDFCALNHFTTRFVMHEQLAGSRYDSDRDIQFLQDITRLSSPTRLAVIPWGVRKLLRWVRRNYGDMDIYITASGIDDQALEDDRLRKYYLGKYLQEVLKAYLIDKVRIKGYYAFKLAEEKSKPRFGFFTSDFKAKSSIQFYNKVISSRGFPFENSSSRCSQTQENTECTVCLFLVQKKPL

B1: antibody 5H23 (antibody, V domains shown)
VH: QVQLQQSGPELVKPGALVKISCKASGYTFTSYDINWVKQRPGQGLEWIGWIYPGDGSTKYNEKFKGKATLTADKSSRTAYMQLSSLTSENSAVYFCARSDYYGSRSFAYWGQGTLVTVSA
VL: DIVLTQSPASLAVSLGQRATISCRASKSVSTSGYVYMHWNQQKPGQPPKLLIYLASYLESGVPARFSGSGSGTDFTLNIHPVEEEDAAIYYCQHSRDLTFPFGGGTKLEIK
notes: Murine monoclonal antibody from hybridoma; also called 5H23-Alexa647 (labelled form)
B2: humanized 5H23 antibody (VH SEQ ID NO: 271 and VL SEQ ID NO: 276) (antibody, V domains shown)
VH: QVQLQQSGAEVKKPGASVKVSCKASGYTFTSYDINWVRQAPGQGLEWIGWIYPGDGSTKYNEKFKGKATITRDTSASTAYMELSSLRSEDTAVYFCARSDYYGSRSFAYWGQGTLVTVSS
VL: DIVMTQSPDSLAVSLGERATINCRASKSVSTSGYVYMHWYQQKPGQPPKLLIYLASYLESGVPDRFSGSGSGTDFTLTISSVQAEDVAVYYCQHSRDLTFPFGGGTKLEIK
notes: also called h5H23; h5H23 (Prep 1)

Assays:
[1] = biological target: T1, human beta klotho protein (soluble, …); test: Biacore SPR (as in Example 2)
[2] = biological target: human beta klotho / human FGFR1c receptor complex on cells (human, UniProt Q86Z14 1-1044; P11362 22-822); test: cell-based or functional assay
Chain of human beta klotho / human FGFR1c receptor complex on cells (Q86Z14 whole entry, chain 1 of 2): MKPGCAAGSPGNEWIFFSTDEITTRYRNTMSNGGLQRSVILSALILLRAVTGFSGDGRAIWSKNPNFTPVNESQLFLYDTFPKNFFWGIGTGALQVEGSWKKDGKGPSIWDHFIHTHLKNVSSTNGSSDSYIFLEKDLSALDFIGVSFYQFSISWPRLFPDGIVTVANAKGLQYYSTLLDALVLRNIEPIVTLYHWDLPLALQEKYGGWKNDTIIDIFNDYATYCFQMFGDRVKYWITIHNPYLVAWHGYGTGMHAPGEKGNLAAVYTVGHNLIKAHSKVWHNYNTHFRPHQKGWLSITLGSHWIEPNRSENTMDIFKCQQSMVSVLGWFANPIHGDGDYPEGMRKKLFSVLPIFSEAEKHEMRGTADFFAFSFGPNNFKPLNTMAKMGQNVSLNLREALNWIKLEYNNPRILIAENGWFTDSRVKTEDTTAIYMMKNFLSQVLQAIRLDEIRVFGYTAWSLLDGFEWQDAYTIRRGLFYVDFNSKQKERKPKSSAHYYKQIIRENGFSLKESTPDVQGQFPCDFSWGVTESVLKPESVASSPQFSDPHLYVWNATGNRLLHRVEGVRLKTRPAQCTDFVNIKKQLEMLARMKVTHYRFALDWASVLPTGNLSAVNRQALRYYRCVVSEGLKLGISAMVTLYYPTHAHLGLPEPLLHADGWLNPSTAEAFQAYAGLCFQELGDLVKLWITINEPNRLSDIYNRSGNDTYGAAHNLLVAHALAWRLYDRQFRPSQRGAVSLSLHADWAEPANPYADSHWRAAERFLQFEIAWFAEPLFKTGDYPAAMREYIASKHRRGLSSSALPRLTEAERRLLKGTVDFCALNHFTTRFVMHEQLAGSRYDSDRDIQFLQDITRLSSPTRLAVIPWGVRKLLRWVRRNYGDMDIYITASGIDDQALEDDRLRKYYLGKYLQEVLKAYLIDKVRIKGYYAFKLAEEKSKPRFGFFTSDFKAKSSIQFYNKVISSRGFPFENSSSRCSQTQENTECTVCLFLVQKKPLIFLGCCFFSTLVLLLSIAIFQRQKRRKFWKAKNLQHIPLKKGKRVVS
Chain of human beta klotho / human FGFR1c receptor complex on cells (P11362 22-822 limits assumed, chain 2 of 2): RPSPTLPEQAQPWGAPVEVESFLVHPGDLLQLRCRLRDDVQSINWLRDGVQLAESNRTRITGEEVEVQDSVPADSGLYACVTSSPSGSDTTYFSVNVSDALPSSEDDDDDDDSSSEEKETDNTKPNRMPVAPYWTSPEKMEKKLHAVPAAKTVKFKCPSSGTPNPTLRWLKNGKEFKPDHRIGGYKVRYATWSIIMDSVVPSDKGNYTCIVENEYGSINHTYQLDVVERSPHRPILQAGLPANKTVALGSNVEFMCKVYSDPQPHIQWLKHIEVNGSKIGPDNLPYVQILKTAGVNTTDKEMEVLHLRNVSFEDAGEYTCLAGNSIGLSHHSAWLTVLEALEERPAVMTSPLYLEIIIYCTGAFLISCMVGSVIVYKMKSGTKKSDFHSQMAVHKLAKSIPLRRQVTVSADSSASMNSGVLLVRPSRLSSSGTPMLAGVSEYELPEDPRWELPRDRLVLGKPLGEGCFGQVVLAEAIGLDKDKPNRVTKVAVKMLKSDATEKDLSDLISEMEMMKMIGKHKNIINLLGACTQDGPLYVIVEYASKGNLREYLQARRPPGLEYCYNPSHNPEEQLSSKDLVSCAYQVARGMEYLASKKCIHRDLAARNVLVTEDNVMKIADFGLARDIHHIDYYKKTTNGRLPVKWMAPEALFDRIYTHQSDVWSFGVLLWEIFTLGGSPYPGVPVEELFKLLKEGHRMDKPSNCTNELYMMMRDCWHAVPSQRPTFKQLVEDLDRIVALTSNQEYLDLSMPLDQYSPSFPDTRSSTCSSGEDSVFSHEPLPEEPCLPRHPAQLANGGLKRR

Row | Binder | Kd [1] [nM] | EC50 adipocyte [2] [nM] | EC50 reporter assay [2] [nM]
1 | B1 | 0.05 |  | 
2 | B2 |  | 11.2 | 0.6

— patent US20210030857A1 (NGM BIOPHARMACEUTICALS, published 2021)
